Assay results as given in patent US20240409635A1 (VIBRANT PHARMA, published 2024).
Where two headings read alike, the source gives them in different places.

T1: recombinant human tumor antigen CEACAM-6 (ACRO systems, CE6-H5223) (human, UniProt P40199 35-320)
T1 construct: Bought
T1 sequence (looked up): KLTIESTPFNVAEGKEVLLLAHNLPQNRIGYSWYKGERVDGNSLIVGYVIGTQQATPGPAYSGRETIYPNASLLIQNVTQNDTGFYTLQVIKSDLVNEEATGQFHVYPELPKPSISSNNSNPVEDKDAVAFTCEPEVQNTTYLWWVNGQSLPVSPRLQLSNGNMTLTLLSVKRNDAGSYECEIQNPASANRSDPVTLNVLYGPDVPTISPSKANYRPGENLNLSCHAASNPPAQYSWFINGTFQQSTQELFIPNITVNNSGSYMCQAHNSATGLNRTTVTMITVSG

T2: recombinant human tumor antigen CEA (CEACAM-5/CD66e, ACRO systems, CE5-H5226) (human, UniProt P06731 35-685)
T2 construct: Bought
T2 sequence (looked up): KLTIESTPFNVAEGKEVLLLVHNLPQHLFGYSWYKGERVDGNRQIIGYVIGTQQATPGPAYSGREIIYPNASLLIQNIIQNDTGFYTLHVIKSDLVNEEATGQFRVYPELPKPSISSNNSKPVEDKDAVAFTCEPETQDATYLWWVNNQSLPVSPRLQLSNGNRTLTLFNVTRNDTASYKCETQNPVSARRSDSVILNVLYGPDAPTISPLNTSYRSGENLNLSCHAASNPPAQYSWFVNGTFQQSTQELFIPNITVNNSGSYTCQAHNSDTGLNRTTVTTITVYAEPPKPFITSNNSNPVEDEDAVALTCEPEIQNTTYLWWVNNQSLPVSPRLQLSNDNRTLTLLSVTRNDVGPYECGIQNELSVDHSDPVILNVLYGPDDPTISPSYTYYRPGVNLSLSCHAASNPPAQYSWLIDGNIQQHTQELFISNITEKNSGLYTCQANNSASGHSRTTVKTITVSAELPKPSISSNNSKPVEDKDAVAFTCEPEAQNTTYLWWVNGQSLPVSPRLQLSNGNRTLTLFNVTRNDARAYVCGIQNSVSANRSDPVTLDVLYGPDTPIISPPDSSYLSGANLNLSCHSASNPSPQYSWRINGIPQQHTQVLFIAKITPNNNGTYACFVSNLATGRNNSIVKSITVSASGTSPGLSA


Assays:
Assay in all cases: BLI, antibody on AHC sensor, antigen as analyte
[1] = target: T1, recombinant human tumor antigen …
[2] = target: T3, recombinant human tumor antigen HER2 (ERBB2, ACRO systems, HE2-H5212) (human, UniProt P04626 23-652)
T3 construct: Bought

[3] = target: T4, recombinant human protein CD3ε/δ (ACRO systems, CDD-H52W1) (human, UniProt P07766 23-126; P04234 22-105)
T4 construct: Bought heterodimer

[4] = target: T2, recombinant human tumor antigen CEA …
Description: (§1) Antibodies were first captured onto an anti-human IgG Fc coated AHC biosensor (Anti-hIgG Fc, Sartorius, 18-5060). Antibodies were diluted to 5 μg/mL and 1.5 nm protein was coupled to the AHC sensor surface in 0.02% PBST.
(§2) After the sensor captures the antibodies, it binds and dissociates with different concentrations of analytes to obtain the KD value of the interaction. The experimental parameters are as follows: Baseline1: 60 s, Loading: 240 s, Baseline2: 180 s, Association: 240 s, Dissociation: 600 s, High sensitivity kinetics: 2 Hz. Kinetic constants were derived based on the rate equation for 1:1 Langmuir binding to obtain equilibrium dissociation constants (KD). The Data Analysis HT 12 software (Sartorius, 50-5029) was used to simultaneously fit binding and dissociation curves to calculate Kₒₙ and Koff. The affinity KD was calculated based on the below formula: KD=Koff/Kₒₙ.

[5] = target: T3, recombinant human tumor antigen HER2 …; remark: listed apart in the source
Description: as §1, §2

[6] = target: T4, recombinant human protein CD3ε/δ (ACRO …); remark: listed apart in the source
Description: as §1, §2

T4 sequence (P07766 23-126, stated change not applied, chain 1 of 2): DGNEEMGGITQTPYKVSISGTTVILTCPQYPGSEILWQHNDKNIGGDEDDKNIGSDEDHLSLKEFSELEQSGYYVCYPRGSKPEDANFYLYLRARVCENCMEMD
T4 sequence (P04234 22-105, stated change not applied, chain 2 of 2): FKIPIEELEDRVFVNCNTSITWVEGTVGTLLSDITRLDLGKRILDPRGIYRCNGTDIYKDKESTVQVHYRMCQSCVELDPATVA

Row | Binder | Kd [1] [nM] | koff [1] [s⁻¹] | kon [1] [M⁻¹ s⁻¹] | Kd [2] [nM] | koff [2] [s⁻¹] | kon [2] [M⁻¹ s⁻¹] | Kd [3] [nM] | koff [3] [s⁻¹] | kon [3] [M⁻¹ s⁻¹] | Kd [4] [nM] | koff [4] [s⁻¹] | kon [4] [M⁻¹ s⁻¹] | Kd [5] [nM] | koff [5] [s⁻¹] | kon [5] [M⁻¹ s⁻¹] | Kd [6] [nM] | koff [6] [s⁻¹] | kon [6] [M⁻¹ s⁻¹]
1 | unilateral CD3/CEA-CAM6/HER2 trispecific antibody 711 (other) chain 1: QVQLVQSGGGLVQAGGSLRLSCAASGRTFSSYAMAWFRQAPGKEREFVAAISWSGANIYVADSVKGRFTISRDNAKDTVYLQMNSLKPEDTAVYYCAVKLGFAPVEERQYDYWGQGTQVTVSSGGGGSGGGGSEVKLLESGGGLVQPKGSLKLSCAASGFTFNTYAMNWVRQAPGKGLEWVARIRSKYNNYATYYADSVKDRFTISRDDSQSILYLQMNNLKTEDTAMYYCVRHGNFGNSYVSWFAYWGQGTLVTVSSASTKGPSVFPLAPCSRSTSESTAALGCLVKDYFPEPVTVSWNSGALTSGVHTFPAVLQSSGLYSLSSVVTVPSSSLGTKTYTCNVDHKPSNTKVDKRVESKYGPPCPPCPAPEAAGGPSVFLFPPKPKDTLMISRTPEVTCVVVDVSQEDPEVQFNWYVDGVEVHNAKTKPREEQFNSTYRVVSVLTVLHQDWLNGKEYKCKVSNKGLPSSIEKTISKAKGQPREPQVYTLPPCQEEMTKNQVSLWCLVKGFYPSDIAVEWESNGQPENNYKTTPPVLDSDGSFFLYSRLTVDKSRWQEGNVFSCSVMHEALHNHYTQKSLSLSL chain 2: QVKLEESGGGLVQAGGSLRLSCRTSGRTNSVYTMGWFRQAPGKEREFVAQIMWGAGTNTHYADSVKGRFTISRDSAESTVYLQMNSLKPEDTAVYYCAANRGIPIAGRQYDYWGQGTQVTVSSESKYGPPCPPCPAPEAAGGPSVFLFPPKPKDTLMISRTPEVTCVVVDVSQEDPEVQFNWYVDGVEVHNAKTKPREEQFNSTYRVVSVLTVLHQDWLNGKEYKCKVSNKGLPSSIEKTISKAKGQPREPQVCTLPPSQEEMTKNQVSLSCAVKGFYPSDIAVEWESNGQPENNYKTTPPVLDSDGSFFLVSRLTVDKSRWQEGNVFSCSVMHEALHNRFTQKSLSLSL chain 3: QAVVTQESALTTSPGETVTLTCRSSTGAVTTSNYANWVQEKPDHLFTGLIGGTNKRAPGVPARFSGSLIGDKAALTITGAQTEDEAIYFCALWYSNLWVFGGGTKVEIKRTVAAPSVFIFPPSDEQLKSGTASVVCLLNNFYPREAKVQWKVDNALQSGNSQESVTEQDSKDSTYSLSSTLTLSKADYEKHKVYACEVTHQGLSSPVTKSFNRGEC | 4.52 | 0.00254 | 562000 | 38.9 | 0.00888 | 228000 | 1.41 | 0.000516 | 367000 |  |  |  |  |  |  |  |  | 
2 | unilateral CD3/CEA/HER2 trispecific antibody 610 (other) chain 1: EVQLVESGGGFVQAGESLTLSCTSSTLTFTPYRMAWYRQAPGKQRDLVADISSGDGRTTNYADFAKGRFTISRDNIKNTVFLRMTNLKPEDTAVYYCNTFVSFVGIARSWGQGTQVTVSSESKYGPPCPPCPAPEAAGGPSVFLFPPKPKDTLMISRTPEVTCVVVDVSQEDPEVQFNWYVDGVEVHNAKTKPREEQFNSTYRVVSVLTVLHQDWLNGKEYKCKVSNKGLPSSIEKTISKAKGQPREPQVYTLPPCQEEMTKNQVSLWCLVKGFYPSDIAVEWESNGQPENNYKTTPPVLDSDGSFFLYSRLTVDKSRWQEGNVFSCSVMHEALHNHYTQKSLSLSL chain 2: EVKLLESGGGLVQPKGSLKLSCAASGFTFNTYAMNWVRQAPGKGLEWVARIRSKYNNYATYYADSVKDRFTISRDDSQSILYLQMNNLKTEDTAMYYCVRHGNFGNSYVSWFAYWGQGTLVTVSSASTKGPSVFPLAPCSRSTSESTAALGCLVKDYFPEPVTVSWNSGALTSGVHTFPAVLQSSGLYSLSSVVTVPSSSLGTKTYTCNVDHKPSNTKVDKRVESKYGPPCPPCPAPEAAGGPSVFLFPPKPKDTLMISRTPEVTCVVVDVSQEDPEVQFNWYVDGVEVHNAKTKPREEQFNSTYRVVSVLTVLHQDWLNGKEYKCKVSNKGLPSSIEKTISKAKGQPREPQVCTLPPSQEEMTKNQVSLSCAVKGFYPSDIAVEWESNGQPENNYKTTPPVLDSDGSFFLVSRLTVDKSRWQEGNVFSCSVMHEALHNRFTQKSLSLSL chain 3: QVQLVQSGGGLVQAGGSLRLSCAASGRTFSSYAMAWFRQAPGKEREFVAAISWSGANIYVADSVKGRFTISRDNAKDTVYLQMNSLKPEDTAVYYCAVKLGFAPVEERQYDYWGQGTQVTVSSGGGGSGGGGSQAVVTQESALTTSPGETVTLTCRSSTGAVTTSNYANWVQEKPDHLFTGLIGGTNKRAPGVPARFSGSLIGDKAALTITGAQTEDEAIYFCALWYSNLWVFGGGTKVEIKRTVAAPSVFIFPPSDEQLKSGTASVVCLLNNFYPREAKVQWKVDNALQSGNSQESVTEQDSKDSTYSLSSTLTLSKADYEKHKVYACEVTHQGLSSPVTKSFNRGEC |  |  |  |  |  |  |  |  |  | 0.153 | 8.05e-05 | 525000 | 53.5 | 0.00914 | 171000 | 1.47 | 0.000402 | 273000
3 | CEA-BsAb (CD3 TA1-Fab x CEA VHH bispecific control antibody) (bispecific antibody, human IgG4 S228P, kappa, F234A L235A) heavy: EVKLLESGGGLVQPKGSLKLSCAASGFTFNTYAMNWVRQAPGKGLEWVARIRSKYNNYATYYADSVKDRFTISRDDSQSILYLQMNNLKTEDTAMYYCVRHGNFGNSYVSWFAYWGQGTLVTVSSASTKGPSVFPLAPCSRSTSESTAALGCLVKDYFPEPVTVSWNSGALTSGVHTFPAVLQSSGLYSLSSVVTVPSSSLGTKTYTCNVDHKPSNTKVDKRVESKYGPPCPPCPAPEAAGGPSVFLFPPKPKDTLMISRTPEVTCVVVDVSQEDPEVQFNWYVDGVEVHNAKTKPREEQFNSTYRVVSVLTVLHQDWLNGKEYKCKVSNKGLPSSIEKTISKAKGQPREPQVYTLPPCQEEMTKNQVSLWCLVKGFYPSDIAVEWESNGQPENNYKTTPPVLDSDGSFFLYSRLTVDKSRWQEGNVFSCSVMHEALHNHYTQKSLSLSL EVQLVESGGGFVQAGESLTLSCTSSTLTFTPYRMAWYRQAPGKQRDLVADISSGDGRTTNYADFAKGRFTISRDNIKNTVFLRMTNLKPEDTAVYYCNTFVSFVGIARSWGQGTQVTVSSESKYGPPCPPCPAPEAAGGPSVFLFPPKPKDTLMISRTPEVTCVVVDVSQEDPEVQFNWYVDGVEVHNAKTKPREEQFNSTYRVVSVLTVLHQDWLNGKEYKCKVSNKGLPSSIEKTISKAKGQPREPQVCTLPPSQEEMTKNQVSLSCAVKGFYPSDIAVEWESNGQPENNYKTTPPVLDSDGSFFLVSRLTVDKSRWQEGNVFSCSVMHEALHNRFTQKSLSLSL light: QAVVTQESALTTSPGETVTLTCRSSTGAVTTSNYANWVQEKPDHLFTGLIGGTNKRAPGVPARFSGSLIGDKAALTITGAQTEDEAIYFCALWYSNLWVFGGGTKVEIKRTVAAPSVFIFPPSDEQLKSGTASVVCLLNNFYPREAKVQWKVDNALQSGNSQESVTEQDSKDSTYSLSSTLTLSKADYEKHKVYACEVTHQGLSSPVTKSFNRGEC |  |  |  |  |  |  |  |  |  |  |  |  |  | 0.027 | 3680 | 1.64 | 0.00045 | 275000
